Results published in US20230047413A1.

Target: tau seeds from spinal cords of P301S transgenic animals (human), P10636
Experiment: cell-based or functional assay

tau seeds from spinal cords of P301S transgenic animals (human), P10636, sequence (P10636 other isoform, or with tags, fused parts or gaps P301S P301S): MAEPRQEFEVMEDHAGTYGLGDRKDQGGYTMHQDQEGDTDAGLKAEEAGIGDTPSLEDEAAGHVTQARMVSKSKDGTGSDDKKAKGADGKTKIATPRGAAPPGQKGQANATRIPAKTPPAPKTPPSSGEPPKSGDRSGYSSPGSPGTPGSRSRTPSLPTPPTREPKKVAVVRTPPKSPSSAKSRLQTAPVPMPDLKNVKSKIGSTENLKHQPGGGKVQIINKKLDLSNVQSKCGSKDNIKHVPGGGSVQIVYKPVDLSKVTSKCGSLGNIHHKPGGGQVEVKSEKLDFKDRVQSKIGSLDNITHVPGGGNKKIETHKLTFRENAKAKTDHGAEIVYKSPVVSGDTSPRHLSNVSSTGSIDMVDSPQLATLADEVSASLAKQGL

FRET/P301S spinal cord immunodepletion assay, 300 nM antibody (% of negative control): 96.2
blocking of aggregate induction (FRET assay) at 3 nM: 30.7%
blocking of aggregate induction (FRET assay) at 30 nM: 37%
inhibition of K18 aggregate induction, FRET/P301S spinal cord co-incubation assay, 300 nM antibody (% of negative control): 34
B1: PT3 (mouse-hybridoma-derived antibody) (antibody, V domains shown)
VH: EVKLVESGGDLVKPGGSLKLSCAASGFTFSSYAMSWVRQNPEKRLEWVASISKGGNTYYPNSVKGRFTISRDNARNILYLQMSSLRSEDTALYYCARGWGDYGWFAYWGQVTLVTVSA
VL: DIKMTQSPSSMYASLGERVTITCKASQDINRYLNWFQQKPGKSPKTLIYRANRLLDGVPSRFSGSGSGQDYSLTISSLDYEDMGIYYCLQYDEFPLTFGDGTKLELK
modifications: here or on the partner: aggregated
